Data as given in article PMC11216086, “The structure of TRAF7 coiled-coil trimer provides insight into its function in zebrafish embryonic development” (Journal of Molecular Cell Biology, 2024).
Substitutions are numbered along the chain they refer to.

B1: human TRAF7 CC (270–379 aa) F337S (domain or fragment, UniProt Q6Q0C0 270-379, looked up)
chain: GNQDTYETHLETCRFEGLKEFLQQTDDRFHEMHVALAQKDQEIAFLRSMLGKLSEKIDQLEKSLELKSDVLDENQSKLSEDLMEFRRDASMLNDELSHINARLNMGILGS
notes: source: E. coli BL21 (DE3), purified (nickel-NTA, Superdex 200 size-exclusion chromatography)
B2: human TRAF7 CC (fragment 270–379 aa) (domain or fragment, UniProt Q6Q0C0 270-379, looked up)
chain: B1 chain with S68F
notes: Cloned in pET32M3C; tags 'were cleaved by HRV 3C protease when needed'; also called TRAF7 CC region; TRAF7 coiled-coil domain; source: E. coli BL21 (DE3), purified (nickel-NTA, Superdex 200 size-exclusion chromatography)
B3: human TRAF7 CC (270–379 aa) R371G (domain or fragment, UniProt Q6Q0C0 270-379, looked up)
chain: B1 chain with S68F, R102G
notes: Variant found in patients with developmental disorders; source: E. coli BL21 (DE3), purified (nickel-NTA, Superdex 200 size-exclusion chromatography)
B4: human TRAF7 CC (270–379 aa) Q310L (domain or fragment, UniProt Q6Q0C0 270-379, looked up)
chain: B1 chain with Q41L, S68F
notes: as for B1
B5: human TRAF7 CC (270–379 aa) K346E (domain or fragment, UniProt Q6Q0C0 270-379, looked up)
chain: B1 chain with S68F, K77E
notes: as for B3
B6: human TRAF7 CC (270–379 aa) I368S (domain or fragment, UniProt Q6Q0C0 270-379, looked up)
chain: B1 chain with S68F, I99S
notes: as for B1
B7: human TRAF7 ZF-CC (fragment 221–379 aa) (domain or fragment, UniProt Q6Q0C0 221-379, looked up)
chain: DHEGSCDYRPVRCPNNPSCPPLLRMNLEAHLKECEHIKCPHSKYGCTFIGNQDTYETHLETCRFEGLKEFLQQTDDRFHEMHVALAQKDQEIAFLRSMLGKLSEKIDQLEKSLELKFDVLDENQSKLSEDLMEFRRDASMLNDELSHINARLNMGILGS
notes: as for B1

Target: the molecule itself
Test: SEC-MALS; Superdex 200 gel filtration in 50 mM Tris pH 8.0, 100 mM NaCl, 10 mM EDTA, 1 mM DTT; three-angle light scattering (mini-DAWN TRISTAR) and refractive index detector; self-association (trimer)

Protein	binding result	stoichiometry N
B1	binds	–
B2	–	3
B3	binds	–
B4	binds	–
B5	binds	–
B6	binds	–
B7	–	3
